Reference: EP4667489A1 (Kyinno Biotechnology Co., Ltd., dated 2025)
Residue numbers refer to the chain shown, from its start. Where two headings read alike, the source gives them in different places.

Legend:
[1] = molecular target: T1, LAG3-hFc (fusion protein of the human LAG3 extracellular domain and human IgG1-Fc) (human, UniProt P18627 23-450); test: flow cytometry, blocking of LAG3 fusion protein binding to Daudi cells (procedure of Example 5)
T1 construct: extracellular domain; not shown: human IgG1-Fc, Genbank CAC20454.1
T1 sequence (looked up): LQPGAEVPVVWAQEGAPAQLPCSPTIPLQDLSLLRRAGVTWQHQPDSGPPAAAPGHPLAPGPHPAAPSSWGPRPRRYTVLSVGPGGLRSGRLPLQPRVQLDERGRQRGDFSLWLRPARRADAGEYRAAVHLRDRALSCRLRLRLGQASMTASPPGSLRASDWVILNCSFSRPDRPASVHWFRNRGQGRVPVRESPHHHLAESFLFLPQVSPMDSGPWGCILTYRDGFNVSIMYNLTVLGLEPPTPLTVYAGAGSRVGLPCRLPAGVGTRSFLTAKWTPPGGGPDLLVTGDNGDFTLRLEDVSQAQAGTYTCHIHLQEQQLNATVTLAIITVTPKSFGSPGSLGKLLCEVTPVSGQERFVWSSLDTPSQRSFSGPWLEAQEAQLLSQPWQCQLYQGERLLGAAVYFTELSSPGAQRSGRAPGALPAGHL

[2] = molecular target: T2, PD1-hFc (fusion protein of the human PD1 extracellular domain and human IgG1-Fc) (human, UniProt Q15116 25-170); test: flow cytometry, blocking of PD1 fusion protein binding to 293T-PDL1 cells (procedure of Example 8)
T2 construct: extracellular domain; also called human PD1-hFc; not shown: human IgG1-Fc, Genbank CAC20454.1
T2 sequence (Q15116 25-170): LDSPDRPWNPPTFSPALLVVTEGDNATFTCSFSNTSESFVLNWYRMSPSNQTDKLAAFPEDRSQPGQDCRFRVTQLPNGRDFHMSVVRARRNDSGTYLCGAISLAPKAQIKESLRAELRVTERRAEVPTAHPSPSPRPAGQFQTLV

[3] = molecular target: T3, LAG3-His (ACRO, Cat No.: LA3-H5222) (UniProt P18627 23-450); test: BLI (ForteBio Octet), LAG3-His as mobile phase
T3 construct: bought protein; not shown: His tag
T3 sequence (looked up): T1 sequence (looked up)

[4] = molecular target: T4, human LAG3 expressed on 293T-LAG3 cells (human, UniProt P18627 23-525); test: flow cytometry on 293T-LAG3 cells
T4 construct: whole, on cells; 293T cells stably expressing human LAG3 (Kyinno KC-0214); also called LAG3-expressing cells
T4 sequence (looked up): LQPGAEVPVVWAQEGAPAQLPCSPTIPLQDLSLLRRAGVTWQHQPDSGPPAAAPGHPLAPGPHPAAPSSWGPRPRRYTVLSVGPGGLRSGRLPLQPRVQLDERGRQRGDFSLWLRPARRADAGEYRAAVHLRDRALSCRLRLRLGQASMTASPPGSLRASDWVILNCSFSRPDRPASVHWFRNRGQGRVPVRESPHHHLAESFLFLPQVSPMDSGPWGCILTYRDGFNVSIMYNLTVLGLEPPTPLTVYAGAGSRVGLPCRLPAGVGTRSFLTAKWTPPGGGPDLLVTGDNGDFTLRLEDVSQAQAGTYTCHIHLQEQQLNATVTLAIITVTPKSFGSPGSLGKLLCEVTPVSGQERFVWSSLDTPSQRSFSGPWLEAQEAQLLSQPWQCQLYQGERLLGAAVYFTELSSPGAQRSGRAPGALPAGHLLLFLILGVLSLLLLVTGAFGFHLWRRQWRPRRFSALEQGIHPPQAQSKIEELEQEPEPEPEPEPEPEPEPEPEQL

[5] = molecular target: T5, PD1-His (Kyinno, Cat No.: KP-1023) (UniProt Q15116 25-167, limits assumed); test: BLI (ForteBio Octet), PD1-His as mobile phase
T5 construct: bought protein; not shown: His tag
T5 sequence (Q15116 25-167 limits assumed): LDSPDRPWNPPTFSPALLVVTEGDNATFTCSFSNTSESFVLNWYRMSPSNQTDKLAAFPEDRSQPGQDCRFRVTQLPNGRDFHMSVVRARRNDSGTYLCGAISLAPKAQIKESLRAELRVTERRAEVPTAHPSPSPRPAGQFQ

[6] = molecular target: T6, human PD1 expressed on 293T-PD1 cells (human, UniProt Q15116 25-288); test: flow cytometry on 293T-PD1 cells
T6 construct: whole, on cells; 293T cells stably expressing human PD1 (Kyinno KC-0204); also called PD1-expressing cells; Jurkat NFAT-PD1-luc cells
T6 sequence (Q15116 25-288): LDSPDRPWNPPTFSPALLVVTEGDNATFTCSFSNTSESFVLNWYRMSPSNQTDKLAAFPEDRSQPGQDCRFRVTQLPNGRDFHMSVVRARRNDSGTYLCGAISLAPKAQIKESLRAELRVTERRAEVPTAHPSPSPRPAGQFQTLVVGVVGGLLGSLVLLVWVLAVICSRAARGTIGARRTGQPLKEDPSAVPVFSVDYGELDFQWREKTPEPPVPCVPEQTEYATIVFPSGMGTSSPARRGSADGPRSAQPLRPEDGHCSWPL

[7] = molecular target: T1, LAG3-hFc (fusion protein of the human …); test: flow cytometry, blocking of LAG3 fusion protein binding to Daudi cells (procedure of Example 5); remark: listed apart in the source
[8] = molecular target: T3, LAG3-His (ACRO, Cat No.: LA3-H5222); test: BLI (ForteBio Octet), LAG3-His as mobile phase; remark: listed apart in the source
[9] = molecular target: T5, PD1-His (Kyinno, Cat No.: KP-1023); test: BLI (ForteBio Octet), PD1-His as mobile phase; remark: listed apart in the source
[10] = molecular target: T6, human PD1 expressed on 293T-PD1 cells; test: flow cytometry on 293T-PD1 cells; remark: listed apart in the source
[11] = molecular target: T4, human LAG3 expressed on 293T-LAG3 cells; test: flow cytometry on 293T-LAG3 cells; remark: listed apart in the source
[12] = molecular target: T2, PD1-hFc (fusion protein of the human …); test: flow cytometry, blocking of PD1 fusion protein binding to 293T-PDL1 cells (procedure of Example 8); remark: listed apart in the source
[13] = molecular target: T7, human PDL1 expressed on 293T-PDL1 cells (human, UniProt Q9NZQ7 19-290); test: cell-based or functional assay
T7 sequence (Q9NZQ7 19-290): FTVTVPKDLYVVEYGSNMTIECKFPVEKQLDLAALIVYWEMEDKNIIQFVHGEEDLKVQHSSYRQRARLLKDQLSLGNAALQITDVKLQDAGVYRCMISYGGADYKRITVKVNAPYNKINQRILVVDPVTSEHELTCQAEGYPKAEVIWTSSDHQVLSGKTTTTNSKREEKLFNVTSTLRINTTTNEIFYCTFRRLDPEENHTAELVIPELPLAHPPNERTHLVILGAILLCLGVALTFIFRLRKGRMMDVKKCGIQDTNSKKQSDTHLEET

[14] = molecular target: T7, human PDL1 expressed on 293T-PDL1 cells; test: flow cytometry on 293T-PDL1 cells
[15] = molecular target: T8, PDL1-mFc (fusion protein of the human PDL1 extracellular domain and mouse Fc; Kyinno, Cat No.: KP-1008) (human; mouse, UniProt Q9NZQ7 19-238); test: flow cytometry, blocking of PDL1-mFc binding to 293T-PD1 cells
T8 construct: extracellular domain; bought; also called human PDL1-mFc; not shown: mouse Fc
T8 sequence (Q9NZQ7 19-238): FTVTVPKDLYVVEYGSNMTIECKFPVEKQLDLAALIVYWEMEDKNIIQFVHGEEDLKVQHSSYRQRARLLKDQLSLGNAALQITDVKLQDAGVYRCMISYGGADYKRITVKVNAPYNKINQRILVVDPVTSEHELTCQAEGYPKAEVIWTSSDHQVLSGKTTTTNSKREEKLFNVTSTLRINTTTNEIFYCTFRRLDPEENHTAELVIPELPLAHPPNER

B1: KA-1836 H107D1210×H28G27V4-hIgG4M (bispecific antibody)
heavy 1: QVQLVESGGGLVKPGGSLRLSCAASGFTFSDYGMHWIRQAPGKGLEWVAYISSGSYTIYYADTVRDRFTISRDSAKNSLYLQMNSLRAEDTAVYYCVRRGPGYFGSTALDYWGQGTTVTVSSASTKGPSVFPLAPCSRSTSESTAALGCLVKDYFPEPVTVSWNSGALTSGVHTFPAVLQSSGLYSLSSVVTVPSSSLGTKTYTCNVDHKPSNTKVDKRVESKYGPPCPPCPAPEFLGGPSVFLFPPKPKDTLMISRTPEVTCVVVDVSQEDPEVQFNWYVDGVEVHNAKTKPREEQFNSTYRVVSVLTVLHQDWLNGKEYKCKVSNKGLPSSIEKTISKAKGQPREPQVYTLPPCQEEMTKNQVSLWCLVKGFYPSDIAVEWESNGQPENNYKTTPPVLDSDGSFFLYSRLTVDKSRWQEGNVFSCSVMHEALHNHYTQKSLSLSLG
heavy 2: QVQLQESGPGLVKPSETLSLTCTVSGYSFTSGYYWNWIRQPPGKGLEWIGYVSYFGTANYNPALKNRVTISRDTSKNQFSLKLSSVTAADTAVYYCARGEEWDWSFDVWGQGTTVTVSSASTKGPSVFPLAPCSRSTSESTAALGCLVKDYFPEPVTVSWNSGALTSGVHTFPAVLQSSGLYSLSSVVTVPSSSLGTKTYTCNVDHKPSNTKVDKRVESKYGPPCPPCPAPEFLGGPSVFLFPPKPKDTLMISRTPEVTCVVVDVSQEDPEVQFNWYVDGVEVHNAKTKPREEQFNSTYRVVSVLTVLHQDWLNGKEYKCKVSNKGLPSSIEKTISKAKGQPREPQVCTLPPSQEEMTKNQVSLSCAVKGFYPSDIAVEWESNGQPENNYKTTPPVLDSDGSFFLVSRLTVDKSRWQEGNVFSCSVMHEALHNHYTQKSLSLSLG
light: DIQITQSPSSLSASVGDRVTITCSATSGVSYMHWYQQKPGKAPKRLIYDTSRLASGVPSRFSGSGSGTDYTLTISSLQPEDFATYYCQQWSSNPPYTFGQGTRLEIKRTVAAPSVFIFPPSDEQLKSGTASVVCLLNNFYPREAKVQWKVDNALQSGNSQESVTEQDSKDSTYSLSSTLTLSKADYEKHKVYACEVTHQGLSSPVTKSFNRGEC
notes: PD1×LAG3 bispecific; first heavy chain targets PD1 (hIgG4 Knob), second targets LAG3 (hIgG4 Hole); common light chain 1
[1]
  IC50: 0.972 µg/mL
[2]
  IC50: 0.302 µg/mL
[3]
  Kd: 0.18 nM
  koff: 0.000266 s⁻¹
  kon: 1.48e+06 M⁻¹ s⁻¹
[4]
  EC50: 0.557 µg/mL
[5]
  Kd: 6.55 nM
  koff: 0.00116 s⁻¹
  kon: 178000 M⁻¹ s⁻¹
[6]
  EC50: 0.33 µg/mL

B2: KA-1793 H28G27V4×H107D1210-hIgG4M (bispecific antibody)
heavy 1: B1 heavy 1 with Y351C, C356S, W368S, L370A, Y409V
heavy 2: B1 heavy 2 with C348Y, S353C, S365W, A367L, V406Y
light: B1 light with T26S, G28S, R52K
notes: PD1×LAG3 bispecific; first heavy chain targets PD1 (hIgG4 Hole), second targets LAG3 (hIgG4 Knob); common light chain 2
[7]
  IC50: 0.88 µg/mL
[8]
  Kd: 0.175 nM
  koff: 0.000111 s⁻¹
  kon: 633000 M⁻¹ s⁻¹
[9]
  Kd: 6.87 nM
  koff: 0.00255 s⁻¹
  kon: 372000 M⁻¹ s⁻¹
[10]
  EC50: 0.3 µg/mL
[11]
  EC50: 0.0931 µg/mL
[12]
  IC50: 0.232 µg/mL

B3: KA-2016 H58E3-2V4-2-hIgG1 (antibody, V domains shown)
VH: QVQLVESGGGLVKPGGSLRLSCAASGFTFSDYGIHWIRQAPGKGLEWVAFISSGSSTIYYADAVKGRFTISRDNAKNSLYLQMNSLRAEDTAVYYCTRRDFYGSADAMDYWGQGTTVTVSS
VL: DIQLTQSPSTLSASVGDRVTITCSATSSIGYMHWYQQKPGTSPKRWIYDTSKLASGVPSRFSGSGSGTEYTLTISSLQPDDFATYYCQLWSSDPPYTFGQGTRLEIKR
notes: anti-PDL1 humanized antibody, human IgG1 / kappa
[13]
  IC50, luciferase reporter (procedure of Example 25): 0.081 nM
[14]
  EC50: 0.0419 µg/mL
[15]
  IC50: 0.0229 µg/mL
